Test results published in ChEMBL document CHEMBL1142886, “Substrate specificity analysis and inhibitor design of homoisocitrate dehydrogenase” (Bioorg Med Chem, 2007).

How the values were obtained:
[1] = substrate: C=CCCC[C@H](C(=O)O)[C@@H](O)C(=O)O; experiment: (§1) Ratio of kcat/km of recombinant Saccharomyces cerevisiae homoisocitrate dehydrogenase expressed in Escherichia coli Rosetta cells above 10 mM
[2] = substrate: O=C(O)CCC[C@H](C(=O)O)[C@@H](O)C(=O)O; experiment: as §1
[3] = substrate: O=C(O)[C@@H](CCCCO)[C@@H](O)C(=O)O; experiment: as §1
[4] = substrate: O=C(O)CCCC[C@H](C(=O)O)[C@@H](O)C(=O)O; experiment: as §1
[5] = substrate: C=C[C@H](C(=O)O)[C@@H](O)C(=O)O; experiment: as §1
[6] = substrate: O=C(O)[C@@H](CCO)[C@@H](O)C(=O)O; experiment: as §1
[7] = substrate: CCCCC[C@H](C(=O)O)[C@@H](O)C(=O)O; experiment: as §1
[8] = substrate: O=C(O)[C@@H](CCCO)[C@@H](O)C(=O)O; experiment: as §1
[9] = substrate: O=C(O)CC[C@H](C(=O)O)[C@@H](O)C(=O)O; experiment: as §1
[10] = substrate: CC[C@H](C(=O)O)[C@@H](O)C(=O)O; experiment: as §1
[11] = substrate: C=CC[C@H](C(=O)O)[C@@H](O)C(=O)O; experiment: as §1
[12] = substrate: C[C@H](C(=O)O)[C@@H](O)C(=O)O; experiment: as §1
[13] = substrate: CCC[C@H](C(=O)O)[C@@H](O)C(=O)O; experiment: as §1
[14] = substrate: C=CCCC[C@H](C(=O)O)[C@@H](O)C(=O)O; experiment: (§2) Activity of recombinant Saccharomyces cerevisiae homoisocitrate dehydrogenase expressed in Escherichia coli Rosetta cells
[15] = substrate: O=C(O)CCC[C@H](C(=O)O)[C@@H](O)C(=O)O; experiment: as §2
[16] = substrate: O=C(O)[C@@H](CCCCO)[C@@H](O)C(=O)O; experiment: as §2
[17] = substrate: O=C(O)CCCC[C@H](C(=O)O)[C@@H](O)C(=O)O; experiment: as §2
[18] = substrate: C=C[C@H](C(=O)O)[C@@H](O)C(=O)O; experiment: as §2
[19] = substrate: O=C(O)[C@@H](CCO)[C@@H](O)C(=O)O; experiment: as §2
[20] = substrate: CCCCC[C@H](C(=O)O)[C@@H](O)C(=O)O; experiment: as §2
[21] = substrate: O=C(O)[C@@H](CCCO)[C@@H](O)C(=O)O; experiment: as §2
[22] = substrate: O=C(O)CC[C@H](C(=O)O)[C@@H](O)C(=O)O; experiment: as §2
[23] = substrate: CC[C@H](C(=O)O)[C@@H](O)C(=O)O; experiment: as §2
[24] = substrate: C=CC[C@H](C(=O)O)[C@@H](O)C(=O)O; experiment: as §2
[25] = substrate: C[C@H](C(=O)O)[C@@H](O)C(=O)O; experiment: as §2
[26] = substrate: CCC[C@H](C(=O)O)[C@@H](O)C(=O)O; experiment: as §2

B1: Homoisocitrate dehydrogenase, mitochondrial (Saccharomyces cerevisiae S288c), P40495 (protein)
chain: MFRSVATRLSACRGLASNAARKSLTIGLIPGDGIGKEVIPAGKQVLENLNSKHGLSFNFIDLYAGFQTFQETGKALPDETVKVLKEQCQGALFGAVQSPTTKVEGYSSPIVALRREMGLFANVRPVKSVEGEKGKPIDMVIVRENTEDLYIKIEKTYIDKATGTRVADATKRISEIATRRIATIALDIALKRLQTRGQATLTVTHKSNVLSQSDGLFREICKEVYESNKDKYGQIKYNEQIVDSMVYRLFREPQCFDVIVAPNLYGDILSDGAAALVGSLGVVPSANVGPEIVIGEPCHGSAPDIAGKGIANPIATIRSTALMLEFLGHNEAAQDIYKAVDANLREGSIKTPDLGGKASTQQVVDDVLSRL
Q: How did the kcat/Km [1] turn out when B1 was run?
A: 15 M⁻¹ s⁻¹

Q: And the kcat/Km [2]?
A: 62000 M⁻¹ s⁻¹

Q: And the kcat/Km [3]?
A: 4800 M⁻¹ s⁻¹

Q: And the kcat/Km [4]?
A: 18000 M⁻¹ s⁻¹

Q: What about the kcat/Km [5] of the same protein?
A: 150 M⁻¹ s⁻¹

Q: What about the kcat/Km [6] of the same protein?
A: 370 M⁻¹ s⁻¹

Q: And the kcat/Km [7]?
A: 15 M⁻¹ s⁻¹

Q: And the kcat/Km [8]?
A: 8300 M⁻¹ s⁻¹

Q: What about the kcat/Km [9] of the same protein?
A: 940000 M⁻¹ s⁻¹

Q: And the kcat/Km [10]?
A: 1000 M⁻¹ s⁻¹

Q: And the kcat/Km [11]?
A: 830 M⁻¹ s⁻¹

Q: What about the kcat/Km [12] of the same protein?
A: 56 M⁻¹ s⁻¹

Q: What about the kcat/Km [13] of the same protein?
A: 2400 M⁻¹ s⁻¹

Q: And the Km [14]?
A: 9400 µM

Q: And the kcat [14]?
A: 0.14 s⁻¹

Q: And the Km [15]?
A: 26 µM

Q: And the kcat [15]?
A: 1.6 s⁻¹

Q: And the Km [16]?
A: 440 µM

Q: And the kcat [16]?
A: 2.1 s⁻¹

Q: What about the Km [17] of the same protein?
A: 170 µM

Q: What about the kcat [17] of the same protein?
A: 3.1 s⁻¹

Q: What about the Km [18] of the same protein?
A: 3400 µM

Q: What about the kcat [18] of the same protein?
A: 0.5 s⁻¹

Q: And the Km [19]?
A: 2100 µM

Q: And the kcat [19]?
A: 0.78 s⁻¹

Q: What about the Km [20] of the same protein?
A: 7200 µM

Q: What about the kcat [20] of the same protein?
A: 0.11 s⁻¹

Q: And the Km [21]?
A: 580 µM

Q: And the kcat [21]?
A: 4.8 s⁻¹

Q: And the Km [22]?
A: 18 µM

Q: And the kcat [22]?
A: 17 s⁻¹

Q: And the Km [23]?
A: 600 µM

Q: What about the kcat [23] of the same protein?
A: 0.61 s⁻¹

Q: And the Km [24]?
A: 410 µM

Q: What about the kcat [24] of the same protein?
A: 0.34 s⁻¹

Q: What about the Km [25] of the same protein?
A: 5700 µM

Q: And the kcat [25]?
A: 0.32 s⁻¹

Q: And the Km [26]?
A: 290 µM

Q: What about the kcat [26] of the same protein?
A: 0.7 s⁻¹
